Experimental data taken from patent US20220396627A1 (VERSEAU THERAPEUTICS, published 2022).
Numbering of substitutions follows the chain as printed. Numbers in names are those of the source.

B1: 12G23 (antibody, V domains shown)
VH: EVQLQQSGPELVRPGASVKMSCKASGYTFTDYNMHWVKQSHGKSLEWIGYINPNNGGTSYNQKFKGKATLTVNKSSSTAYMELRSLTSDDSAVYYCAREGYGNYPFYWGQGTTLTVSS
VL: DIVLTQSPASLAVSLGQRVTISCRGSESVEYYGTSLMQWYQQKPGQPPKLLIYAASNVESGVPARFSGSGSGTDFSLNIHPVEEDDIAMYFCQQDRKVPYTFGGGTKLEIK
B2: 13O18 (antibody, V domains shown)
VH: B1 VH with S59T, K63N, D89E
VL: B1 VL with G25A, Y90F
B3: 12L19 (antibody, V domains shown)
VH: QVTLKESGPGILQPSQTLSLTCSFSGFSLNTFGMAVGWIRQPSGKGLEWLAHIWWDDSYYFNPALRSRLTISKDTSKNQVFLTIANVDTADTATYYCTRIPDDYDDYAMDYWGQGTSVTVSS
VL: DVVMTQTPLSLPVSLGDQASISCRSSQSLVHSNGNTYLHWYLQKPGQSPKLLVYKVSNRFSGVPDRFSGSGSGTDFTLKISRVEAEDLGVYFCSQNTHIPYTFGGGTKLEIK
B4: 9D21 (antibody, V domains shown)
VH: QVQLKESGPGLVAPSQSLSITCTVSGFSLTRYGVSWVRQPPGKGLEWLGVIWGDGSTNYHSALISRLSISKDNSKSQVFLKLNSLQTDDTATYYCARPYYGFFDYWGQGTTLTVSS
VL: SIVMTQTPKFLLVSAGDRVTITCKASQSVSNAVAWYQQKPGQSPKMLIYYASNRYTGVPDRFTGSGYGTDFTFTISTVQAEDLAVYFCQQDYSSPYTFGGGTKLEIK
B5: 12P18 (antibody, V domains shown)
VH: QVQLQQSGAELVRPGASVTLSCKASGYTFTDYEMHWVKQTPVHGLEWIGAIDPEAGGTAYNRKFKGKAILTADKSSSTAYMELRSLTSEDSAVYYCTNLGRDYWGQGTTLTVSS
VL: DIVMSQSPSSLAVSVGEKVTMSCKSSQSLLYSSTQKNYLAWYQQKPGQSPKRLIYWASTRESGVPDRFTGSGSGTDFTLTISSVKAEDLAVYYCQQYYSYWTFGGGTKLEIK
B6: 9C15 (antibody, V domains shown)
VH: QVQLQQPGAELVKPGASVKMSCKASGYTFTSYWITWLNQRPGQGLEWIGDIYPGSGGTNYNERFKSKATLTVDTSSSTAYMQLSSLTSEDSAVYYCARSGGWAMDYWGQGTSVTVSS
VL: DIQMTQTTSSLSASLGDRVTISCRASQDISNYLNWYQQKPDGTVKLLIYYKSGLHSGVPSRFSGSGSGTDYSLTISNLEQEDIATYFCQQGNTLPFTFGGGTKLEIK
B7: 3L02 mouse/human chimeric antibody (human IgG4 S228P, kappa) (antibody, V domains shown)
VH: DVQLQESGPGMVKPSQSLSLTCTVTGYSITSGYDWHWIRHFPGNKLEWMGYISYSAGTNYNPSLKSRISITHDTSKNHFFLKLNSVTTEDTATYYCAREGLTAYWYFDVWGTGTTVTVSS
VL: DIVMTQSQKFMSTSVGDRVSVTCKASQTVGTNVAWYQQKPGQSPKPLIYSASYRYSGVPDRFTGSGSGTDFTLTISNVQSEDLAEYFCQQYDSFPLTFGSGTKLEIKR
B8: 3L02 (antibody, V domains shown)
VH: B7 VH
VL: DIVMTQSQKFMSTSVGDRVSVTCKASQTVGTNVAWYQQKPGQSPKPLIYSASYRYSGVPDRFTGSGSGTDFTLTISNVQSEDLAEYFCQQYDSFPLTFGSGTKLEIK

target: T1, Human Siglec-9-Fc (recombinant human Siglec-9 extracellular domain Q18-G348 fused to human IgG1 Fc) (human); assay: BLI binning, hSiglec-9-Fc on AHC sensor; competitor bound first (row): 9C15
Protocol: (§1) Epitopic diversity of functional antibodies was further assessed by antibody cross-blocking experiments, performed on a ForteBio Octet Red384 system. All samples were prepared in black 384-well flat bottom plates from (Greiner, Cat. #781209) with a working volume of 120 uL and diluted in kinetics buffer (1×DPBS containing 0.1% bovine serum albumin, 0.05% sodium azide, and 0.02% Tween®20). Anti-SIGLEC-9 antibodies and human Siglec-9-Fc protein were diluted in kinetics buffer to a final concentration of 10 ug/mL. Anti-human IgG Fc capture (AHC) biosensors (ForteBio, Cat. #18-5060) were rehydrated prior to the assay in kinetics buffer for 10 minutes then equilibrated in kinetics buffer for 60 seconds. Recombinant human Siglec-9-Fc was then immobilized for 120 seconds followed by a 30 second baseline wash in fresh kinetics buffer, 120 second association of a first antibody (antibody “a”), 30 second wash, and then 120 second association of a competitor antibody (antibody “b”). All assay steps occurred at 30° C. with an acquisition rate of 5.0 Hz.
(§2) Binning results were calculated using ForteBio Data Analysis HT software. Antibody “a” and antibody “b” steps were defined, and the maximum binding calculation was averaged at the last 10% of the step duration. Once the matrix was generated the self-self interaction was subtracted and hierarchical clustering was set with a similarity metric of Pearson and Lingang Criteria by Mean and the maximum binding nm shift is reported in Table 7 below.

T1 sequence (chain, as listed by the source limits assumed): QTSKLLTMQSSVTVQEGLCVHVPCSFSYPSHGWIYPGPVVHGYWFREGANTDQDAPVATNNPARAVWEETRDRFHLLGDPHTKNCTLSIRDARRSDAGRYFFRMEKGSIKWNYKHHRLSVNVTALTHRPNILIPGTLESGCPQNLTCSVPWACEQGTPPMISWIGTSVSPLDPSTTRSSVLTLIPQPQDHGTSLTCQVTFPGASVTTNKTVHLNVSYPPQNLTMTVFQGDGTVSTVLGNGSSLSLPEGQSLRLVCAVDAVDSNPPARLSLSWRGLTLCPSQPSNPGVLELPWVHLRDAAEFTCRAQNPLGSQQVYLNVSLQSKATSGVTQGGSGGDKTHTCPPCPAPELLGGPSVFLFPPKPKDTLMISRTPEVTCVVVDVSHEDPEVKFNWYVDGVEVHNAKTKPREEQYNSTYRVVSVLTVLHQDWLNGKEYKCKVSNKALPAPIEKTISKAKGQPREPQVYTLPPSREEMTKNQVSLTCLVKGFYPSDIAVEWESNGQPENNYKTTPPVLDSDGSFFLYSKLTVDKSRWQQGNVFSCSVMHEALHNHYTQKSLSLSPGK

Row | maximum binding nm shift [nm] | Binder
1 | 0.233 | B1
2 | 0.232 | B2
3 | 0.231 | B3
4 | 0.561 | B4
5 | 0.03 | B5

target: T2, Cyno SIGLEC9; assay: ELISA: plate coated with 1 ug/mL cyno Siglec-9-Fc, antibody at 100 nM, HRP anti-mouse Fc secondary, RLU
T2 construct: also called cyno Siglec-9-Fc; Cynomolgus Monkey SIGLEC9-Fc
Protocol: (§3) ELISA plates (384-well) were coated with 1 ug/mL indicated SIGLEC protein at room temperature. The plates were washed with PBS with 0.1% Tween®20, pH 7.4 and blocked with TBS containing 3% BSA. The plates were washed and incubated with anti-SIGLEC9 antibody diluted to 100 nM. Plates were washed and incubated with HRP-coupled anti-mouse Fc secondary antibody. Plates underwent a final wash and were incubated with HRP substrate. Readout was performed using a POLARstar Omega Microplate Reader (BMG LAPTECH).

T2 sequence (Fc fusion chain, as listed by the source): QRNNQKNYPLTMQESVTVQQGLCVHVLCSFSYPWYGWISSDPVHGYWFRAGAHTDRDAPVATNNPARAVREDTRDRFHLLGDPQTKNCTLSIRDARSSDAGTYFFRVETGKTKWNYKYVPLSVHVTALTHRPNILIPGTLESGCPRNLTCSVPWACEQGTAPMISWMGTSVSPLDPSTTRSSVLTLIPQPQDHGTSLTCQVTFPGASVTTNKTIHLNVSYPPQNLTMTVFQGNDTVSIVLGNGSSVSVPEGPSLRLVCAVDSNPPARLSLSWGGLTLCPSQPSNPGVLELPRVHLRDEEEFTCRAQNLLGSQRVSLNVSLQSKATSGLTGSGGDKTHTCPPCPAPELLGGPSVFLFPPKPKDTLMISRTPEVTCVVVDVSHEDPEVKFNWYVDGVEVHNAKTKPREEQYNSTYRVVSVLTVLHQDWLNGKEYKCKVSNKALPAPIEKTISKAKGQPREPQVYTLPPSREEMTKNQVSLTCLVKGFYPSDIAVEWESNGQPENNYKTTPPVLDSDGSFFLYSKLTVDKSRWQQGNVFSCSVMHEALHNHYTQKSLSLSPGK

Row | binding result | Binder
6 | no binding (tested: 100 nM) | B3
7 | binds | B4
8 | no binding (tested: 100 nM) | B5

target: T1, Human Siglec-9-Fc (recombinant human …); assay: BLI binning, hSiglec-9-Fc on AHC sensor; competitor bound first (row): 2F15
Protocol: as §1, §2

Row | maximum binding nm shift [nm] | Binder
9 | 0.001 | B1
10 | 0.003 | B2
11 | 0.198 | B3
12 | 0.399 | B6
13 | 0.619 | B4
14 | 0.352 | B5

target: Recombinant human Siglec-7-His (human, UniProt Q9Y286 19-353, limits assumed); assay: BLI (Octet Red384), chimeric antibody on AHC sensor, His-tagged analyte
Protocol: (§4) The binding affinity of chimeric antibodies was determined by biolayer interferometry (BLI), using a ForteBio Octet Red384 system. All samples were prepared in black 96-well flat bottom plates (Greiner, Cat. #655209) diluted in kinetics buffer (lx DPBS (Gibco, Cat. #LS14190250) containing 0.1% bovine serum albumin, 0.05% sodium azide, and 0.02% Tween®20). Anti-SIGLEC-9 antibodies (ligand) were diluted to a final concentration of 10 ug/mL and captured on anti-human IgG Fc capture (AHC) biosensors (ForteBio, Cat. #18-5060). […] Biosensors were rehydrated prior to the assay in kinetics buffer for 10 minutes and then equilibrated in kinetics buffer for 60 seconds. Antibody was then immobilized for 300 seconds followed by a 120 second baseline wash in fresh kinetics buffer, 300 second analyte association, and 300 second dissociation in the same buffer wells as the baseline wash step. All assay steps occurred at 30° C. with an acquisition rate of 5.0 Hz
(§5) Processing parameters included double reference subtraction, with human IgG4 used as an isotype control for reference sensor subtraction and immobilized ligand in kinetics buffer with no analyte used for reference sample subtraction. Y-axis data was aligned to the average baseline step for the last 5 seconds and all steps were inter-step corrected to the start of the dissociation step. High frequency noise was removed using Savitzky-Golay filtering and final fitting was a 1:1 global binding model to both association and dissociation.

Chain of Recombinant human Siglec-7-His (Q9Y286 19-353 limits assumed): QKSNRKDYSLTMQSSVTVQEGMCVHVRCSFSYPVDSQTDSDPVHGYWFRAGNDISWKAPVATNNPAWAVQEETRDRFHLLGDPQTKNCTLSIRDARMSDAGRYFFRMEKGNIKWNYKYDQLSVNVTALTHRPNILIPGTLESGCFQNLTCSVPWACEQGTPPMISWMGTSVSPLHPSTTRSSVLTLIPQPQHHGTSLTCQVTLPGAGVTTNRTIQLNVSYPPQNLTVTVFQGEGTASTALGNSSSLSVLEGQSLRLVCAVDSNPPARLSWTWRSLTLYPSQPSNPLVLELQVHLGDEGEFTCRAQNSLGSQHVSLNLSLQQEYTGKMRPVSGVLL

Row | Binder | binding result
15 | B7 | no binding (tested: analyte titrated from 100 nM to 1.56 nM)

target: T3, Recombinant cyno Siglec-9-His (cynomolgus macaque); assay: as above
T3 construct: also called Cynomolgus Monkey SIGLEC9-HIS
Protocol: as §4, §5

T3 sequence (chain, as listed by the source limits assumed): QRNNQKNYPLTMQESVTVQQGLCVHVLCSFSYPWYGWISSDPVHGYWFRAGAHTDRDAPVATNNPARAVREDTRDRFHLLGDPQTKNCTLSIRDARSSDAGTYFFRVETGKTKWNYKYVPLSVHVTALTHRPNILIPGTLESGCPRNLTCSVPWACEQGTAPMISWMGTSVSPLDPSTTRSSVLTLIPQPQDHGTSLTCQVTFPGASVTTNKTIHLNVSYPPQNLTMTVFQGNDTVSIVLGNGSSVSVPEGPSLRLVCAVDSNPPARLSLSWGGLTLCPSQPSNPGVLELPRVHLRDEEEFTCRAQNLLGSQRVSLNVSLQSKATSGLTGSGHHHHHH

Row | Binder | binding result
16 | B7 | no binding (tested: analyte titrated from 100 nM to 1.56 nM)

target: T1, Human Siglec-9-Fc (recombinant human …); assay: BLI binning, hSiglec-9-Fc on AHC sensor; competitor bound first (row): 3L02
Protocol: as §1, §2

Row | maximum binding nm shift [nm] | Binder
17 | 0.277 | B1
18 | 0.271 | B2
19 | 0.09 | B3
20 | 0.472 | B6
21 | 0.745 | B4
22 | 0.463 | B5

target: T1, Human Siglec-9-Fc (recombinant human …); assay: BLI binning, hSiglec-9-Fc on AHC sensor; competitor bound first (row): 13O18
Protocol: as §1, §2

Row | maximum binding nm shift [nm] | Binder
23 | 0.011 | B1
24 | 0.202 | B3
25 | 0.392 | B6
26 | 0.495 | B4
27 | 0.358 | B5

target: T1, Human Siglec-9-Fc (recombinant human …); assay: BLI binning, hSiglec-9-Fc on AHC sensor; competitor bound first (row): 12G23
Protocol: as §1, §2

Row | maximum binding nm shift [nm] | Binder
28 | -0.016 | B2
29 | 0.185 | B3
30 | 0.352 | B6
31 | 0.524 | B4
32 | 0.439 | B5

target: T1, Human Siglec-9-Fc (recombinant human …); assay: BLI binning, hSiglec-9-Fc on AHC sensor; competitor bound first (row): 13J19
Protocol: as §1, §2

Row | maximum binding nm shift [nm] | Binder
33 | 0.139 | B1
34 | 0.135 | B2
35 | 0.175 | B3
36 | 0.282 | B6
37 | -0.022 | B4
38 | 0.324 | B5

target: T4, Human SIGLEC7; assay: ELISA: plate coated with 1 ug/mL human Siglec-7-Fc, antibody at 100 nM, HRP anti-mouse Fc secondary, RLU
T4 construct: also called human Siglec-7-Fc
Protocol: as §3

T4 sequence (Fc fusion chain, as listed by the source): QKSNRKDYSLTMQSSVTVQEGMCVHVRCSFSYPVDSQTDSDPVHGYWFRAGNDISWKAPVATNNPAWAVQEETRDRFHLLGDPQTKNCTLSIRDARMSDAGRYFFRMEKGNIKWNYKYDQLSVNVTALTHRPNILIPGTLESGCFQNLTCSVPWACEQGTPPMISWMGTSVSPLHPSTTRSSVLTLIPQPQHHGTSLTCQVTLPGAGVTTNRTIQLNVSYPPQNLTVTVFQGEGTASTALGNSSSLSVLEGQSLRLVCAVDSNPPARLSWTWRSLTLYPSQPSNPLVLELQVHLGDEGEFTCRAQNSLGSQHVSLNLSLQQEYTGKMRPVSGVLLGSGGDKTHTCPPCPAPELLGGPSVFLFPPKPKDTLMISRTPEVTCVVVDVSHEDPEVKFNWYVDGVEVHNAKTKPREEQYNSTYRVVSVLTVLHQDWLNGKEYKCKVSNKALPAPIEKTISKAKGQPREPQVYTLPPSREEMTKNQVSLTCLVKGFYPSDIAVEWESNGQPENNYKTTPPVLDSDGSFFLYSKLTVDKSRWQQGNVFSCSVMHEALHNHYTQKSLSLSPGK

Row | binding result | Binder
39 | no binding (tested: 100 nM) | B3
40 | no binding (tested: 100 nM) | B8
41 | binds | B4
42 | no binding (tested: 100 nM) | B5

target: T1, Human Siglec-9-Fc (recombinant human …); assay: BLI binning, hSiglec-9-Fc on AHC sensor; competitor bound first (row): 13H10 (printed 13H110)
Protocol: as §1, §2

Row | maximum binding nm shift [nm] | Binder
43 | 0.242 | B1
44 | 0.224 | B2
45 | -0.02 | B3
46 | 0.336 | B6
47 | 0.686 | B4
48 | 0.336 | B5

target: T1, Human Siglec-9-Fc (recombinant human …); assay: BLI binning, hSiglec-9-Fc on AHC sensor; competitor bound first (row): 12L19
Protocol: as §1, §2

Row | maximum binding nm shift [nm] | Binder
49 | 0.263 | B1
50 | 0.251 | B2
51 | 0.392 | B6
52 | 0.73 | B4
53 | 0.518 | B5

target: T5, Recombinant human Siglec-9-His (human, UniProt Q9Y336 18-348); assay: BLI (Octet Red384), chimeric antibody on AHC sensor, His-tagged analyte 100-1.56 nM, 1:1 global fit
T5 construct: The entry begins at QTSK... like the Q18-G348 extracellular domain of the Fc fusion and ends in GSG and a His tag
Protocol: as §4, §5

T5 sequence (Q9Y336 other isoform, or with tags, fused parts or gaps limits assumed): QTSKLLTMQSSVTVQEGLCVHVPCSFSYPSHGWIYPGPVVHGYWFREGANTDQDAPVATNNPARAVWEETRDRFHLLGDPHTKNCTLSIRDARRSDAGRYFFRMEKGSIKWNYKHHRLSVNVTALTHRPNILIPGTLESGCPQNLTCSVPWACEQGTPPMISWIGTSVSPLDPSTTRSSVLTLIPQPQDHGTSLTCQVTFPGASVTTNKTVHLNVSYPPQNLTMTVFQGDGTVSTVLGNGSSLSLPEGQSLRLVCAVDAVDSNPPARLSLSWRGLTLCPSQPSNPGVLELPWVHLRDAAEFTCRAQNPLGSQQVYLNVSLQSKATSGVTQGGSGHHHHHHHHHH

Row | Kd [pM] | Binder
54 | 4.4 | B7

target: T1, Human Siglec-9-Fc (recombinant human …); assay: BLI binning, hSiglec-9-Fc on AHC sensor; competitor bound first (row): 9D21
Protocol: as §1, §2

Row | maximum binding nm shift [nm] | Binder
55 | 0.162 | B1
56 | 0.163 | B2
57 | 0.263 | B3
58 | 0.395 | B6
59 | 0.349 | B5

target: T1, Human Siglec-9-Fc (recombinant human …); assay: BLI binning, hSiglec-9-Fc on AHC sensor; competitor bound first (row): 12P18
Protocol: as §1, §2

Row | maximum binding nm shift [nm] | Binder
60 | 0.231 | B1
61 | 0.228 | B2
62 | 0.379 | B3
63 | 0.003 | B6
64 | 0.658 | B4
